Laboratory results published in the supplement of paper PMC11246515.
± gives the standard deviation of the averaged measurements.

Assay: total protein half-life in vivo (active degradation + dilution); higher = more stable protein
[1] = E. coli NCM3722 delta-clpP delta-lon delta-hslV, growth: N-lim chemostat, doubling time 6 h
[2] = E. coli NCM3722 delta-clpP, growth: N-lim chemostat, doubling time 6 h
[3] = E. coli NCM3722 delta-hslV, growth: N-lim chemostat, doubling time 6 h
[4] = E. coli NCM3722 delta-lon, growth: N-lim chemostat, doubling time 6 h
[5] = wild type E. coli NCM3722, growth: C-lim chemostat, doubling time 12 h
[6] = wild type E. coli NCM3722, growth: N-lim chemostat, doubling time 6 h
[7] = wild type E. coli NCM3722, growth: N-lim chemostat, doubling time 12 h
[8] = wild type E. coli NCM3722, growth: P-lim chemostat, doubling time 6 h
[9] = wild type E. coli NCM3722, growth: P-lim chemostat, doubling time 12 h
[10] = E. coli NCM3722 delta-smpB, growth: N-lim chemostat, doubling time 6 h
[11] = wild type E. coli NCM3722, growth: C-lim chemostat, doubling time 3 h
[12] = wild type E. coli NCM3722, growth: C-lim chemostat, doubling time 6 h

| Sequence | total protein half-life in vivo [1] [h] | total protein half-life in vivo [2] [h] | total protein half-life in vivo [3] [h] | total protein half-life in vivo [4] [h] | total protein half-life in vivo [5] [h] | total protein half-life in vivo [6] [h] | total protein half-life in vivo [7] [h] | total protein half-life in vivo [8] [h] | total protein half-life in vivo [9] [h] | total protein half-life in vivo [10] [h] | total protein half-life in vivo [11] [h] | total protein half-life in vivo [12] [h] |
| --- | --- | --- | --- | --- | --- | --- | --- | --- | --- | --- | --- | --- |
| MGRISSGGMMFKAITTVAALVIATSAMAQDDLTISSLAKGETTKAAFNQMVQGHKLPAWVMKGGTYTPAQTVTLGDETYQVMSACKPHDCGSQRIAVMWSEKSNQMTGLFSTIDEKTSQEKLTWLNVNDALSIDGKTVLFAALTGSLENHPDGFNFK [P0AD59] | 5.34 ± 0.85 | 5.71 ± 1 | 6.18 ± 0.25 | 6.285 ± 0.011 | 9.68 ± 1.2 | 5.85 ± 0.58 | 12.6 ± 0.36 | 5.4 ± 0.3 | 12.9 ± 1 |  |  |  |
| MSKEHTTEHLRAELKSLSDTLEEVLSSSGEKSKEELSKIRSKAEQALKQSRYRLGETGDAIAKQTRVAAARADEYVRENPWTGVGIGAAIGVVLGVLLSRR | 5.56 ± 0.57 | 6.08 ± 0.86 | 5.45 ± 0.11 | 6.206 ± 0.014 | 9.35 ± 1.2 | 5.47 ± 0.066 | 9.88 ± 0.33 | 5.55 ± 0.1 | 10.7 ± 1.2 | 4.81 ± 0.094 | 2.81 ± 0.54 | 5.64 ± 0.14 |
| MTQPLVGKQILIVEDEQVFRSLLDSWFSSLGATTVLAADGVDALELLGGFTPDLMICDIAMPRMNGLKLLEHIRNRGDQTPVLVISATENMADIAKALRLGVEDVLLKPVKDLNRLREMVFACLYPSMFNSRVEEEERLFRDWDAMVDNPAAAAKLLQELQPPVQQVISHCRVNYRQLVAADKPGLVLDIAALSENDLAFYCLDVTRAGHNGVLAALLLRALFNGLLQEQLAHQNQRLPELGALLKQVNHLLRQANLPGQFPLLVGYYHRELKNLILVSAGLNATLNTGEHQVQISNGVPLGTLGNAYLNQLSQRCDAWQCQIWGTGGRLRLMLSAE [P0AEV1] | 3.97 ± 0.57 | 3.09 ± 0.13 | 3.094 ± 0.028 | 3.57 ± 0.32 | 8.52 ± 0.76 | 3.39 ± 0.12 | 5.16 ± 0.3 | 5.53 ± 0.37 | 10.1 ± 0.53 | 2.961 ± 0.028 | 2.72 ± 0.33 | 4.34 ± 0.48 |
| MSIKEQTLMTPYLQFDRNQWAALRDSVPMTLSEDEIARLKGINEDLSLEEVAEIYLPLSRLLNFYISSNLRRQAVLEQFLGTNGQRIPYIISIAGSVAVGKSTTARVLQALLSRWPEHRRVELITTDGFLHPNQVLKERGLMKKKGFPESYDMHRLVKFVSDLKSGVPNVTAPVYSHLIYDVIPDGDKTVVQPDILILEGLNVLQSGMDYPHDPHHVFVSDFVDFSIYVDAPEDLLQTWYINRFLKFREGAFTDPDSYFHNYAKLTKEEAIKTAMTLWKEINWLNLKQNILPTRERASLILTKSANHAVEEVRLRK [P0A6I3] | 4.81 ± 0.35 | 5.07 ± 0.72 | 4.053 ± 0.029 | 4.54 ± 0.22 | 8.55 ± 0.56 | 4.41 ± 0.7 | 7.123 ± 0.068 | 5.6077 ± 0.0014 | 12.5 ± 0.64 | 4.28 ± 0.39 | 3.07 ± 0.17 | 5.71 ± 0.51 |
| MTQTLSQLENSGAFIERHIGPDAAQQQEMLNAVGAQSLNALTGQIVPKDIQLATPPQVGAPATEYAALAELKAIASRNKRFTSYIGMGYTAVQLPPVILRNMLENPGWYTAYTPYQPEVSQGRLEALLNFQQVTLDLTGLDMASASLLDEATAAAEAMAMAKRVSKLKNANRFFVASDVHPQTLDVVRTRAETFGFEVIVDDAQKVLDHQDVFGVLLQQVGTTGEIHDYTALISELKSRKIVVSVAADIMALVLLTAPGKQGADIVFGSAQRFGVPMGYGGPHAAFFAAKDEYKRSMPGRIIGVSKDAAGNTALRMAMQTREQHIRREKANSNICTSQVLLANIASLYAVYHGPVGLKRIANRIHRLTDILAAGLQQKGLKLRHAHYFDTLCVEVADKAGVLTRAEAAEINLRSDILNAVGITLDETTTRENVMQLFNVLLGDNHGLDIDTLDKDVAHDSRSIQPAMLRDDEILTHPVFNRYHSETEMMRYMHSLERKDLALNQAMIPLGSCTMKLNAAAEMIPITWPEFAELHPFCPPEQAEGYQQMIAQLADWLVKLTGYDAVCMQPNSGAQGEYAGLLAIRHYHESRNEGHRDICLIPASAHGTNPASAHMAGMQVVVVACDKNGNIDLTDLRAKAEQAGDNLSCIMVTYPSTHGVYEETIREVCEVVHQFGGQVYLDGANMNAQVGITSPGFIGADVSHLNLHKTFCIPHGGGGPGMGPIGVKAHLAPFVPGHSVVQIEGMLTRQGAVSAAPFGSASILPISWMYIRMMGAEGLKKASQVAILNANYIASRLQDAFPVLYTGRDGRVAHECILDIRPLKEETGISELDIAKRLIDYGFHAPTMSFPVAGTLMVEPTESESKVELDRFIDAMLAIRAEIDQVKAGVWPLEDNPLVNAPHIQSELVAEWAHPYSREVAVFPAGVADKYWPTVKRLDDVYGDRNLFCSCVPISEYQ | 4.44 ± 0.46 | 3.621 ± 0.013 | 4.09 ± 0.11 | 4 ± 0.3 | 8.75 ± 0.28 | 4.02 ± 0.13 | 6.79 ± 0.18 | 6.117 ± 0.035 | 11 ± 0.55 | 3.81 ± 0.18 | 3.022 ± 0.029 | 4.95 ± 0.14 |
| MTLSFVTRWRDELPETYTALSPTPLNNARLIWHNTELANTLSIPSSLFKNGAGVWGGEALLPGMSPLAQVYSGHQFGVWAGQLGDGRGILLGEQLLADGTTMDWHLKGAGLTPYSRMGDGRAVLRSTIRESLASEAMHYLGIPTTRALSIVTSDSPVYRETAEPGAMLMRVAPSHLRFGHFEHFYYRRESEKVRQLADFAIRHYWSHLADDEDKYRLWFSDVVARTASLIAQWQTVGFAHGVMNTDNMSLLGLTLDYGPFGFLDDYEPGFICNHSDHQGRYSFDNQPAVALWNLQRLAQTLSPFVAVDALNEALDSYQQVLLTHYGERMRQKLGFMTEQKEDNALLNELFSLMARERSDYTRTFRMLSLTEQHSAASPLRDEFIDRAAFDDWFARYRGRLQQDEVSDSERQQLMQSVNPALVLRNWLAQRAIEAAEKGDMTELHRLHEALRNPFSDRDDDYVSRPPDWGKRLEVSCSS | 4.63 ± 0.32 | 4.26 ± 0.67 | 3.15 ± 0.38 | 3.26 ± 0.13 | 8.02 ± 1.4 | 2.971 ± 0.012 | 4.63 ± 0.64 | 4.72 ± 0.71 | 8.293 ± 0.077 | 2.8 ± 0.21 | 2.72 ± 0.068 | 4.57 ± 0.15 |
| MSRIEAVFFDCDGTLVDSEVICSRAYVTMFQEFGITLDPEEVFKRFKGVKLYEIIDIVSLEHGVTLAKTEAEHVYRAEVARLFDSELEAIEGAGALLSAITAPMCVVSNGPNNKMQHSMGKLNMLHYFPDKLFSGYDIQRWKPDPALMFHAAKAMNVNVENCILVDDSVAGAQSGIDAGMEVFYFCADPHNKPIVHPKVTTFTHLSQLPELWKARGWDITA |  |  |  | 2.73 | 9.19 |  | 2.64 |  |  |  | 2.09 | 4.76 |
| MLHLFAGLDLHTGLLLLLALAFVLFYEAINGFHDTANAVATVIYTRAMRSQLAVVMAAVFNFLGVLLGGLSVAYAIVHMLPTDLLLNMGSSHGLAMVFSMLLAAIIWNLGTWYFGLPASSSHTLIGAIIGIGLTNALMTGTSVVDALNIPKVLSIFGSLIVSPIVGLVFAGGLIFLLRRYWSGTKKRARIHLTPAEREKKDGKKKPPFWTRIALILSAIGVAFSHGANDGQKGIGLVMLVLIGVAPAGFVVNMNATGYEITRTRDAINNVEAYFEQHPALLKQATGADQLVPAPEAGATQPAEFHCHPSNTINALNRLKGMLTTDVESYDKLSLDQRSQMRRIMLCVSDTIDKVVKMPGVSADDQRLLKKLKSDMLSTIEYAPVWIIMAVALALGIGTMIGWRRVATTIGEKIGKKGMTYAQGMSAQMTAAVSIGLASYTGMPVSTTHVLSSSVAGTMVVDGGGLQRKTVTSILMAWVFTLPAAVLLSGGLYWLSLQFL [P0AFJ7] | 6.99 ± 0.45 | 6.5 ± 1.2 |  |  | 14.4 ± 0.95 | 6.13 ± 0.24 |  | 6.54 ± 0.4 | 12.6 ± 1 | 6.14 ± 0.78 | 3.761 ± 0.013 | 6.37 ± 1.4 |
| MKKPNHSGSGQIRIIGGQWRGRKLPVPDSPGLRPTTDRVRETLFNWLAPVIVDAQCLDCFAGSGALGLEALSRYAAGATLIEMDRAVSQQLIKNLATLKAGNARVVNSNAMSFLAQKGTPHNIVFVDPPFRRGLLEETINLLEDNGWLADEALIYVESEVENGLPTVPANWSLHREKVAGQVAYRLYQREAQGESDAD [P0ADX9] | 5.34 ± 0.45 | 4.8 ± 0.15 | 4.49 ± 0.13 | 5.32 ± 0.09 | 10.1 ± 1.5 | 4.49 ± 0.68 | 12.5 | 5.1 ± 0.26 | 11.1 ± 0.63 | 5.18 ± 0.6 | 3.08 ± 0.15 | 5.57 ± 0.19 |
| MQQLQNIIETAFERRAEITPANADTVTREAVNQVIALLDSGALRVAEKIDGQWVTHQWLKKAVLLSFRINDNQVIEGAESRYFDKVPMKFADYDEARFQKEGFRVVPPAAVRQGAFIARNTVLMPSYVNIGAYVDEGTMVDTWATVGSCAQIGKNVHLSGGVGIGGVLEPLQANPTIIEDNCFIGARSEVVEGVIVEEGSVISMGVYIGQSTRIYDRETGEIHYGRVPAGSVVVSGNLPSKDGKYSLYCAVIVKKVDAKTRGKVGINELLRTID [P0A9D8] | 4.878 ± 0.043 | 4.24 ± 0.13 | 4.13 ± 0.23 | 4.507 ± 0.042 | 9.591 ± 0.062 | 4.19 ± 0.11 | 6.89 ± 0.2 | 5.91 ± 0.12 | 11 ± 0.57 | 4.12 ± 0.12 | 2.97 ± 0.074 | 5.34 ± 0.39 |
| MKKIDAIIKPFKLDDVREALAEVGITGMTVTEVKGFGRQKGHTELYRGAEYMVDFLPKVKIEIVVPDDIVDTCVDTIIRTAQTGKIGDGKIFVFDVARVIRIRTGEEDDAAI [P0A9Z1] | 5.76 ± 0.58 | 5.59 ± 1.1 | 5.06 ± 0.23 | 5.35 ± 0.13 | 10.5 ± 1.1 | 4.68 ± 0.49 | 8.91 ± 0.19 | 5.77 ± 0.31 | 11.6 ± 0.54 | 4.77 ± 0.36 | 3.3 ± 0.45 | 5.57 ± 0.17 |
